This series is described as follows: label from the status in PepcDB records.
Turning to “MTSGATRYRLSCSLRGHELDVRGLVCCAYPPGAFVSVSRDRTTRLWAPDSPNRSFTEMHCMSGHSNFVSCVCIIPSSDIYPHGLIATGGNDHNICIFSLDSPMPLYILKGHKNTVCSLSSGKFGTLLSGSWDTTAKVWLNDKCMMTLQGHTAAVWAVKILPEQGLMLTGSAGKTVKLWKAGRCERTFSGHEDCVRGLAILSETEFLSCANDASIRRWQITGECLEVYYGHTNYIYSISVFPNCRDFVTTAEDRSLRIWKHGECAQTIRLPAQSIWCCCVLDNGDIVVGASDGIIRVFTESEDRTASAEEIKAFEKELSHATIDSKTGDLGDINAEQLPGREHLNEPGTREGQTRLIRDGEKVEAYQWSVSEGRWIKIGDVVGSSGANQQTSGKVLYEGKEFDYVFSIDVNEGGPSYKLPYNTSDDPWLTAYNFLQKNDLNPMFLDQVAKFIIDNTKGQMLGLGNPSFSDPFTGGGRYVPGSSGSSNTLPTADPFTGAGRYVPGSASMGTTMAGVDPFTGNSAYRSAASKTMNIYFPKKEAVTFDQANPTQILGKLKELNGTAPEEKKLTEDDLILLEKILSLICNSSSEKPTVQQLQILWKAINCPEDIVFPALDILRLSIKHPSVNENFCNEKEGAQFSSHLINLLNPKGKPANQLLALRTFCNCFVGQAGQKLMMSQRESLMSHAIELKSGSNKNIHIALATLALNYSVCFHKDHNIEGKAQCLSLISTILEVVQDLEATFRLLVALGTLISDDSNAVQLAKSLGVDSQIKKYSSVSEPAKVSECCRFILNLL”, the protein production entry is reported as “failed”.
As for “MSELIKHSSNFLAAISPDNDCSITATNDFEAMMSWLNGYKKKPINTSRNYAREVKRYLIWLSCQGLTLAQVKIEDVYEYFNLLERPTTEWIIPDKKTDKIYPTQLIKYGGLSNRSINYTHTVLGLFYSFLQDAGYLTKNPINLEHHHHHH”, the entry is “failed”; as for “MRGETELKQERSIALPLAISIIAISFAAVFVKMSSAPSSILSMYRLWIIVLLMLPIVWKKREEFSKIQIKDWGFLIGSGFFLALHFLLWFESLKHTTVASSTIILALQPIVSLVGGFFLFKERTTYSAIATMGIAILGVVCIGWGDLGLSEQAIYGDILSFLSVIAVVGYLFIGQTTVKKVSHWIYSFTVFAFAGIFMGIYNIVLQVPFTGYTKWDWTVFLLLAVVPTVSHVINNWLLNYVNATTISMSILGEPVGASILAFFLLGERLNAMQMIGSILVLFGVSVFLLQQQKRTAKNVVNEPVYTQEL”, “failed”; as for “MRNPSEDHMMRTPYQIVADHYAASDRHDPAAMMADIAPAIEWTEMAGFPCAGTYRSADEIVRNVFRRLGEEWDGYTFKLDALHDAGDTVIGVGRYSGTYRRTGKSFECRVAHVWRVDAGKIVHFEQFTDTLLVAQAMQP”, “not failed”.
The entry for “MSGGRAQKPRPAPLRLAKPRPSSVGPAPRGSPGARRPAMSARHAPLLAGRVRSRAPRRFPDRGGGRRRQSSPVRAMSSPAVARASPGGNREASGGPRSRNGPWEVGGGGERLERAGAESGRWELLLRRGELLALGGHLKGALEAFAAALRRGAPARPERLGSLVDCLVFSYRLRHGLRWSAAPAAGAAGLLSCLSCRGFLSEPVTVPCGHSYCRRCLRRELRARCRLCRDRLPPAAAASEGTPRPPPLAAAIADFRTSVVLNHLAEKWFPGQRERARAAGRLGELLHEGRYREALAAACDALRAEPSDLTLKIYRAESYAGLQEFKAALEDLNAVLFQLPNWPEVYFRKGKVLQDAGFLGDALQLFLQCLALDEDFAPAKLQVEKILCDLLSPENVREGLKESSWSSLPCIKSKPLGFPSVMEQPHSPAELGLKQPEERVEDAPEPVKGSLSRAQSAQAISAAAVPAREDGLKRVCSEPLLSAQGKGVLLKRKLSLLEQDVLINEDGRSKLKKQSESPSEDCMFSIAYGDIPEELIDVSDFECSLCMRLFFEPVTTPCGHSFCKNCLERCLDHAPYCPLCKESLKEYLADRRYCVTQLLEELIVKYLPDELSERKKIYDEETAELSHLTKNVPIFVCTMAYPTVPCPLHVFEPRYRLMIRRSIQTGTKQFGMCVSDTQNSFADYGCMLQIRNVHFLPDGRSVVDTVGGKRFRVLKRGMKDGYCTADIEYLEDVKIENGDEIRSLRELHDSVYSQACSWFQNLRDRFRSQILQHFGSMPEREENLQATPNGPAWCWWLLAVLPVDPRYQLSVLSMKSLEERLTKIQHILTYFSRDQSK” is “failed”.
Turning to “MRWRSSRLGRAPLLGALAILWFAVLLPRGGTAGAGPGARGIRRSTGVCAGSRPRPAALLRRSAKVVAGFSVFGCPATAFESCVLSPAPSNSLASVFLLCLLPGLMEETIHTVSTEAFALQAEDPDHTILDVRPIAAYNGWPLQDESRSGHVPGAKSLPLQWTQYMDWVEVLDEKGLSQNAPVTVYGYTADAAAEMADKLSRLGFEAVGVYDGFLEDWAPDPDRPLQRMERYQQLVYPEWVQRLRTGETPPGMRGDDHVLCHAHFGYRQDYEDGHIPGAIPLNTNALESPETWNRRSPEELKSALEDHGIRHDTTVVLYGRFSYPTYDQDDPAQSAGHLGAMRCAALMLYAGVEDVKILNGGISTWESAGYDVSTDDVEPAPVDDFGAEVPAHPEYMLTLDEAKALLEADDGDLVSVRSWAEFIGERSGYHYIDKTGRIPGAVFGNCGSDAYHMENYRNFDYTTREFSEIAGKWAEMGITPDKHIAFYCGTGWRGSEAFMNAYLMGWPNISVYDGGWYEWSSHPDTETATGVPENDVPA”, the protein production entry is listed as “failed”.
In the case of “MCEKTAGDESGRRISRRAGNGEAGRLRSLSRLFDHFATAVTRWTGSPIAFSGACAAILAWASTGPLFGYSEVWQLVVNTGTTIVTFLMVFLIQQAQNKDSRALHVKLDELLVAVNGADVALAEAENLDDDRLLELADAYAARARRLVEHSTQRQRRDRGAEPEVGAARTRLARRPPGARARRHARLCWWQKQYARQRQGGDT”, the protein production result is “failed”.
As for “MIIAIPVSENRGKDSPISEHFGRAPYFAFVKVKNNAIADISVEENPLAQDHVHGAVPNFVKEKGAELVIVRGIGRRAIAAFEAMGVKVIKGASGTVEEVVNQYLSGQLKDSDYEVHDHHHHEHH”, the entry is “not failed”.
In the case of “MLRPSVSLAFASSLPQQSVASRAVQRSPLPRRASGHGATEARGMPSHCFIRFCCIVLLAITGCSPAAQSRYAPERNFSDPKALALALAAEQGDAEEVRRLMKVEGVNPDTIFSKDGYPLLFWPIFTHSPAGLKAMLDNGADPNVALPYQTLDRGVRNNPNAMVWAAEQDDPIYLKMLLDHGGNPNTRNANNESLLFHAFIKQNKWDNIKLLVERGADINAVAGMGNSITAAYAIRGGFDFVYWLLQHGADPTIEFAYGNPVHLKDSGIIEAIFWHPGNPKDPQWQRQCQQWLLKRGYERPPLPENYRSMRKAFHFPSEEKEIPLL”, the protein production entry is listed as “failed”.
The entry for “RERLLSEAKATLQNYVAIAMTAIKPLYDAAAPGDEAARANAIKLLSAVSYGKDGYLFGYDSQVVRIFRSTSPDGLGKSFVDARDANGVYINR” is “failed”.
As for “MKSHKMMGGGISMHYITACLKIISDKDLNEIMKEFKKLEEETNKEEGCITFHAYPLEPSERKIMLWEIWENEEAVKIHFTKKHTIDVQKQELTEVEWLMKSNVND”, the entry is “not failed”; as for “MLDFYALEDLLTPEEKEVQKAARRFLEKEALPHIRDWWEEGVFPTHLIPRFAELGFLGPTLPPEYGGAGVSSAAYGLICYELERVDSGLRSFVSVQSSLVMYPIYAYGSEEQKREFLPKLARGEMVGCFGLTEPDGGSDPYGNMKTRARREGDTWVLNGTKMWITNGNLAHLAVIWAKDEGGEVLGFLVPTDTPGFQAREVKRKMSLRASVTSELVLEEVRVPESLRLPKALGLKAPLSCLTQARFGIAWGAMGALEAVYEEAVAFAKSRSTFGEPLAKKQLVQAKLAEMLAWHTEGLLLAWRLARLKDEGKLTPAQVSLAKRQNVWKALQAARMARDILGGSGITLEYHAIRHMLNLETVYTYEGTHDVHTLVLGREITGLNAF”, “not failed”.
The entry for “MFDKIHYYYFNANYEKCLNLSEQFLKESPKFALEFATLSSYKLSLFQKALYYAQELFSLNPTSFNGLMLAKSYIENLRLDEALNLLQTLLTRKDDLEDELKLELAFIYKLSNKLEESEQIFKELLSKDMYNLNLWKNYAEIYFKHDFTKALNAHEHLCHFMQDLIDKLQKGIIAEQTNLNLVKLEDRLHSKTKENLTISKIEDFLTHQILPQKAYLLFKLFRISDSLELFQSLQEANQHHAQFWQNYAKVLEFNSNYQEAYHAYKKCLSLDSHATYQFDLAYLLMRMGVDDNFEEGKKYYESRLFYAHNETFSTYHYNESLKAFNKFGVDAFKNKEVLVFCEQGFGDTIMYARCLEKLCKIASKVLFAPQSAMYEMFKNQIKFLNQNDDIFKNVKVLKNLPTNFDYAIPICSLPFFIDIKLDEILRLKTPILPQKKPHNQRKKLGIFYATPNAENSDLLRNVKFEFLFDVLKDLDYEIISFQMQLKEELPKVIEDRSKLIKNWNDTLNYLYDIDCMLSIDSAIAHLSLAMDIPTIVLLHPRFDWRWGKFENPKSYFWPKAKCFIIKEQEETKRNLQKLIKDILN” is “failed”.
In the case of “MAERRVALVMADNDYRLVRPLANPIHDGEAMEAALKKLGFEVILETNRDLRRMRRALDDFREDAKGADVALVYFSGHGVEISGDNRLLPVDADASSVDQLDKTSLPLEEVRDAVAATAKVGLIVLDACRSDPFSASSGDGRGATSLTKDVADKVKPGLGRVGRAENILFAFSAAPGETAADGTGENSPFTTALTKYLATDGLEIRSVLTLVQQEVYDLSRGKQLPYVESGLPKLFFAAAAKEQLPERERLLLAMADVTPEMRGEVEQIASDADMPLAPLYGALISSDASHLSADSLNARLREAADAFVKVRSEMKTLASDDPQVAELRRQAEEQLSLGAFDGARALLAKAADIDNVSRQALKVNFASRTLSEAATRFLSGGAARADLDYTTAIGDFETVLSLYGEAGQTSLSLEQADRQSRTLEELGILYTTVGNVEAAGRAFTALLTNLEQRSRQETDPSVKRDLAISHIKLANIKMVQGDLPTSLEHYEAARDMLQDLTASVPDEKSWLGDLAMANDKIGNVLATQGDVGAAAKAYQQSLSIKRKLVDAQPNSASLLRDLTITYDEIGDLARTAGQLDGAQTAFEESLRIRLVLAENKPDPERQRAVSVSHERIGDVLRERGDAAGALVAYSKSQAIAEELVRHDPNDTDLKRDLSISYAKIGNALNDQENWPAALASYQQALAVARELAADDPGNTDWQRDLSVCLEKVAGVLDAQGDIRSALQNYQDSLAIVDRLTKLDPGNSDWQRDLSITLSEIGMLETRQRHFEGSRKAFEASLGIRQKLAQSDPNNAIWQFDLVQAYINYAYVAKDPKAVLTKALNLTLDLDRTGRLAPRDKPTIKYLRGLLAKLNAGKK”, the protein production entry was “failed”.
As to “MRIVPFGAAREVTGSAHLLLAGGRRVLLDCGMFQGKEEARNHAPFGFDPKEVDAVLLTHAHLDHVGRLPKLFREGYRGPVYATRATVLLMEIVLEDALKVMDEPFFGPEDVEEALGHLRPLEYGEWLRLGALSLAFGQAGHLPGSAFVVAQGEGRTLVYSGDLGNREKDVLPDPSLPPLADLVLAEGTYGDRPHRPYRETVREFLEILEKTLSQGGKVLIPTFAVERAQEILYVLYTHGHRLPRAPIYLDSPMAGRVLSLYPRLVRYFSEEVQAHFLQGKNPFRPAGLEVVEHTEASKALNRAPGPMVVLAGSGMLAGGRILHHLKHGLSDPRNALVFVGYQPQGGLGAEIIARPPAVRILGEEVPLRASVHTLGGFSGHAGQDELLDWLQGEPRVVLVHGEEEKLLALGKLLALRGQEVSLARFGEGVPV”, the protein production result is listed as “not failed”.
